According to PMC7736470:

Molecular target: Neuropeptide Y (Homo sapiens), P01303
Conditions: remark: other sources report otherwise

Kd: 35 nM
B1: Neuropeptide Y receptor type 2, P49146 (protein)
chain: MGPIGAEADENQTVEEMKVEQYGPQTTPRGELVPDPEPELIDSTKLIEVQVVLILAYCSIILLGVIGNSLVIHVVIKFKSMRTVTNFFIANLAVADLLVNTLCLPFTLTYTLMGEWKMGPVLCHLVPYAQGLAVQVSTITLTVIALDRHRCIVYHLESKISKRISFLIIGLAWGISALLASPLAIFREYSLIEIIPDFEIVACTEKWPGEEKSIYGTVYSLSSLLILYVLPLGIISFSYTRIWSKLKNHVSPGAANDHYHQRRQKTTKMLVCVVVVFAVSWLPLHAFQLAVDIDSQVLDLKEYKLIFTVFHIIAMCSTFANPLLYGWMNSNYRKAFLSAFRCEQRLDAIHSEVSVTFKAKKNLEVRKNSGPNDSFTEATNV
